Results from a protein production outcome set (Wang et al. 2014).

Experiment: label from the status in PepcDB records
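Further: failed if final PepcDB status was selected cloned or expressed and not failed if soluble or beyond.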

In the case of “MTAHFRPAVYDLPRDGHTVFRWEHPPQQATVELERLQRKQSLAAAFRVFARLGFDMGGAGHITVRDPGRPDHFWVNPVGVYFGHVRVRDLLLVNPEGAVIEGEGALNLAAFAIHAALHEAHPEVVAAAHAHSLYGKAWSSLGRLLDPLTQDACAFYERHGLFDNFSGVVLEASEGVRIAAALAGRKALILQNHGLLTVGETVEAAVWRFIAMDNAAQTQLLAEAAGTPRPIPHEVARHTARQVGTEFGGWFSFQPYRERIVREEPDFLDLEHHHHHH”, the protein production is reported as “failed”.
For “MALNVAPVRDTKWLTLEVCRQFQRGTCSRSDEECKFAHPPKSCQVENGRVIACFDSLKGRCSRENCKYLHPPTHLKTQLEINGRNNLIQQKTAAAMLAQQMQFMFPGTPLHPVPTFPVGPAIGTNTAISFAPYLAPVTPGVGLVPTEILPTTPVIVPGSPPVTVPGSTATQKLLRTDKLEVCREFQRGNCARGETDCRFAHPADSTMIDTSDNTVTVCMDYIKGRCMREKCKYFHPPAHLQAKIKAAQHQANQAAVAAQAAAAAATVMAFPPGALHPLPKRQALEKSNGTSAVFNPSVLHYQQALTSAQLQQHAAFIPTVPMMHSATSATVSAATTPATSVPFAATATANQIILK”, the protein production was “not failed”.
With “MGDSKGRVASAAVSLAEFLESCAGKWFSQRTSYRLGATQDWHQSDQTTLFVDFLAADAPELQALIAEQGLAIAALQSRWEATPQQPASTSLLVFLAEGDRLVHQRGDRCWQGRYQFEGDHRGLTLTTEQPDGQVEERFWFAHPNLRLRTSLIRDRTGLSRSSFYSEIRLGVKPPEPPAEV” the protein production was “failed”.
For “MSQAHAAQRPNGAKEPANPTQGGRKAIIAAASANLAIAVTKAIAWALTGASSMLAEAIHSVADTANQVVLMMGGKESHKEADEDHPFGYETARYLSGFIVAIVIFTLGGLFALYEAYHKIGATLGGHPDELLDSQWWWVPLAVVMISLCAEGASLRTALKESSQDREGMTILQYIRKAKAPELPVVMLEDSAAVLGLIFAFLGVGLTLLTHNPIFDGIGSACIGILLVVVAGVLSREMKSLLEGESAAPESRKAVYDALIHSDGVDSVIYMKTVHLGPETILLAAKIAVDPTDSAFEVARIIDNAEASVRAAEPLVGPLFLEPDIRYGDKRIKDGEERPEDQS”, the protein production was “failed”.
With “MDGMGTLTRYLEEAMARARYELIADEEPYYGEIPDLPGVWATGKSLKECEANLQAALEDWLLFLLSRGETPPPLGEVRIELPHGEAA” the protein production was “not failed”.
For “VTVTDDYLANNVDYASGFKGPLPMPPSKHIAIVACMDARLDVYRMLGIKEGEAHVIRNAGCVVTDDVIRSLAISQRLLGTREIILLHHTDCGMLTFTDDDFKRAIQDETGIRPTWSPESYPDAVEDVRQSLRRIEVNPFVTKHTSLRGFVFDVATGKLNEVTP”, the protein production was “not failed”.
In the case of “KQKRMQAMIVTNHPEKVIEKIHKKLHRGATMIHDAEGTYNHERKAVLITVITRAEFNEFKQIMTQVDPSSFVSVSENVHILGRFVEIDN”, the protein production is reported as “failed”.
For “MLRIFSAKNEVDSKYIFMLAFMLALFSSGVPPEIVILHLSREDSFEPYTKVFKKIRNLVSGYRYKFSSAITYSIKNLNIRFLKEFLIRLSQAVTFGDDMIEFLSREIDFTLSEYNAYSARLIESMNNFLTIYATLNSSLTFLVADITILSLIYSGGTTLIIQLTILSLALLGNLTLVMYLLYRPENYIRYNVIDKFVLTFTISLSIIFSVIYTSYIVLMGTGIVLLGIGLRYRLYENKINRIERHFLLFIRYFSRNYAIVSNLKESLMAVLRGDLGDVRPLIRRSLNRLNFGIDKEKIFRLIGDESGSILVSMLSKVLYETISMGGNAMIIGEILSKIGDSVLNIRSRKEQNGRAFETSIYALQTASAGVSAALISIVGMLNNIFSTQNVSTVFSFSEVNIDIISRIFLIILLILSFANGIAITLAYGKSLYVSLYFIGILIILSSISYHIVLILTGNIFKELASPSGLLQTT”, the protein production was “failed”.
For “MSTRLCEPSLRDDGAQRGTPASHGKWCDTGAFKLDETPSPVVANVSSTSDASFQFNRTPSPGKHQNHAADRSMWSLDDFVIIRKLDEGRFGKVYLAREKQSKCAVVLKCISKDMIRFHSLAHQLQREVELQEYAGRYHKNVLRLFAYFWDDVRIVLVLEYADSGTLQDLLDCYREKEQRSSLPDDKVRTILLQLLSALAFLHERDIIHRDVKPDNILFHGEKLLLADFSWAVRVNNSDPRYCRRHTVCGTLDYLAPEQVLKRGCTTKADLWAVGVVAYRMLCGFLPFEMLDARDVCSCIASGAIRYPSQLSPTARHFLQGLLRVDEALRFSCQEALNHPFMRGDCNCRISNRYIESKHRARAEEPVLQHQGSFDTT”, the protein production was “failed”.
For “SDISLLLDVANAACHKGHVADARSIYEGVLAVRPGFAPARLGQALSHAVVNEFAEAERIINEEVLAEAPEDTDAKALLGLTYFLAGRDEEARDVLRPVAEGDTPAAYVARG”, the protein production was “failed”.
For “MEDHHHLPENLKPFFHRATEAQERLAKLEAALASTKTDIPDAKLVEENKQLQSKLEEANATVKQEQTKVKDLTIENAKHKYRILHLVRALKDADQKLERLSK”, the protein production was “failed”.
In the case of “MQAPRLRVGIFDDGSSTVNMAEKLDSVGHYVTVLHAPEDIRDFELVVIDAHGVEGYVEKLSAFARRGQMFLHTSLTHGITVMDPLETSGGIVMSAHPIGQDRWVASALDELGETIVGLLVGELGGSIVEIADDKRAQLAAALTYAGFLSTLQRDASYFLDEFLGDPDVTSDIVMDSAQQFQALPSLDEVIAQYDSINNPGRQRLFRDLARRQAEISRAQDIELWAIQKEDR”, the protein production is reported as “not failed”.
In the case of “MPWKNTESRYSTMTIALHWLMLVLLAVVYACIEFRGIFPKGSGGRTLIVEAHFMLGLTVFALVWLRLFARAQGVAPKILPTPPHWQRLLSTLMHWALYLFMIAMPILGWLTTSAKGHQVMFYGLDLPLLLAENKPLAKQLQGWHELLGTVGYWLIGLHALAGLYHHYVMRDNTLQRMWRKRGQA”, the protein production is reported as “failed”.
For “MYVLIGGAGLVGLTLAQKLVELGHTVAIIDVDHTACRYAREQVGAMAFEGSAVSTEVLLEAGIRKADALAAVLRNDALNLAMVMLAKHYGVSHILSRMRHADFAQPLRLAGANHVISTVELSVSTMVNAIEYPQVESMMHFEQGQIEVLKISIPNSCYVANRSLAEIAQDSRFPSGSLIIGYQPHPHEDLVIPNGSTVLESGSTILIATKPGSLHQVIDFIEGCKLEHHHHHH”, the protein production was “not failed”.
With “MGKGKSAIESQIRMLKLAKEIVEEVASSFPNLEEVYIFGSRARGDYLDTSDIDILFVFKGIKEMNVFDRMYMVSRFIRGNVDYIVLDEGEKDRVKDKVLFWKREKGFVLL” the protein production was “not failed”.
For “MDLETLRARREAVLSLCARHGAVRVRVFGSVARGEAREDSDLDLLVAFEEGRTLLDHARLKLALEGLLGVRVDIVSERGLAPRLREQVLREAIPL”, the protein production was “not failed”.
For “MIKQSPKYITPLNEQNVNKDNANLLVCPFAGASNSAFNSWRSTDISGLNCQLVNYSGHGCRFKEPAFNDIGLLANELITIIKKFYPPRHNSLLLCGHSMGAQVAFETAIQLEKNGWELSGLILSGCQAPHIQARRLLSDLNDDDFIQQLIAIGGCDAELIKQPQLLKQFMPLLRADFLATERYFFQKSTKRLFHTPVLLMYGSHDSEADKNEVEAWQDWIDKHCTINCIAGDHFYPITRPNTFCRFIIDFYHQ”, the protein production was “failed”.
In the case of “MRDFLKLLKKHDELKIIDTPLEVDLEIAHLAYIEAKKPNGGKALLFTQPIRKEHDQIKTFGMPVLMNAFGSFKRLDLLLKTPIESLQQRMQAFLHFNAPKNFTEGLKVLKDLWDLRHIFPKKTTRPKDLIIKQDKEVNLLDLPVLKTWEKDGGAFITMGQVYTQSLDHQKKNLGMYRLQVYDKNHLGLHWQIHKDSQLFFHEYAKAKVKMPVSIAIGGDLLYTWCATAPLPYGIYELMLYGFMRGKKARVMPCLSNSLSVPSDCDIVIEGFVDCEKLELEGPFGDHTGYYTPIEPYPVLEVKTISYKKDSIYLATVVGKPPLEDKYMGYLTERLFLPLLQMNAPNLIEYYMPENGVFHNLILAKIHTRYNAHAKQVMHAFWGVGQMSFVKHAIFVNEDAPNLRDTNAIIEYILENFSKENALISQGVCDALDHASPEYAMGGKLGIDATSKSNTPYPTLLNDSALLALLQDKMQNIVLLKQYYPHTRNPICVISVEKKDKSVIELAKNLLGFEEHLRIVIFVEHASNDLNNPYMLLWRIVNNIDARRDILTSKHCFFIDATNKGVMDKHFREWPTETNCSMEVIENLKKKGLLKDFETLNQKFHLTHSFSTHKEDL”, the protein production is reported as “failed”.
In the case of “MMRLRGIPQVFRFLLLLVLAGLAGCASKAPAPEKVAPVYQPEQSKEWERQGRQAYEAGDRKMALEAWHQAVAADPANVRVRNNLALLLKEQERFEEAAEMLEAGLKVTPKVAELHYNLAVISELYLLDLDKALEHYQHYQSLVGEEGSQVAGWIADLERRLE”, the protein production is reported as “failed”.
With “MVVKASGGSSVARPQLYQTVPVSTIIQAEQQDRFLNRGELDELAVYLRSGAKRLEIATTLTRNADIIVSRAANRIFVGGSPMAFLSRPQTEEAPQFTTGARGEAIDIKEAMKLGTATYVDTRGGFLEGLRSIFSASSGGAPVGFKPINIARYGPARMEKSLRDLDWFLRYTTYAIVAGDPNILAVNTRGLREIIEAACSSDATIAALQEMRRAALSYFEKDAEAKGIVETYFDVLINEFIAPAPSDKVRQRNSTDLQGLQLPQIYFNAAERRPKFVMKPGLSAAEKNEVVKAAYRQIFERDISRAYGLGISDLESKVKNGSISMKEFIRQLAKSPLYRKNFYEPYINSRALELAFRHILGRGPSSREEVQTYFAIISKGGLPALVDALVDSKEYSDYFGEETVPYLRGLGQEAQECRNWGAQQDLFKYSAPFRKVPQFITTFAAQDQPLPDQHPYGSGNDPLEIQFGAIFPKEKKNPSARPQPFNKDTRRILIARGPGINNQVSNPGARGLTPGTLGPKVFKLDQLPSINARIGKRSIATGTDSVKFAESSTQRVIRAAYLQVFGRDVYEGQRQKVAEIKLENGEISVREFVRILAKSNLFRSLYWTPLYVTKAIEYIHRRLLGRPTYGRQEMNAYFDIASKKGLYGLVDAIIDSQEYSEAFGEDTVPYERYITPQGLALRSLRVGTIGETGVPPEKEETPRFVELGAVTELRTEPAIQFRANQGVSKRREQTKVFKLTDLNDKQNLQLVIQAAYRQVFERDVAPYIVRDEFTALESKLSNGEITLKEFIEALGCSELYQKEFYTPYPNTKVIELGTKHFLGRAPLDQAEIRRYNQILATQGLKAFVQALVSSAEYAQAFGEDTVPYRRFPTLPAANFPNTEKLHNQLTKQSDAIVVPSFAPVKPRLDNTKLPLLSRAIAEQEAKARQADPSKPRFIELGRSFRNGDGQSVEVGVGTTRRRPARIFRMTVGAPSAEVELVINAIYCQVMDVFSGQVPSQFRRPDLESRLRNGEITVREFVRTLASSEIYRNRFYTPYPNTKVIEFLFRHLLGRAPATQAEIRQYNKILADQGLKTAVETMVNSPEYSRYFGEDVVPYKRFPTLPAGNYIGSVKADADLVKQSWSSLSPSLVGIQPSHRD” the protein production was “failed”.
For “MSKQPWLGYLASVAITCTAAGLAYLLDHWLLPTSGTVLILQLAVLLIAFLTNFRAALLAVVLALLLFNFLFTEPRYSLHMTDIDEMVTAIVFIAVGVITSHLVTLFRNQKESLRQAQLRSNILLSVSHDLRTPLASVIGNLSTLQAYQERLPEQERAELLQGALDESDRLHRYIENLLQATRLQHGEIRLTHAVQDIRPVISKTLSRFASQERLLVKDNLQHAMVEVQSSLLEQALFNVIDNAMRFSGETAPVTLSLSETDKFIVIDIKDEGPGIETSKRSLVFNVFYSSREKDSGTGGTGLGLSVAKGIIDIHNGHIGIEESPDGCLVRIKLPRANITEEVS”, the protein production was “failed”.
In the case of “MSVDQMAHYQRKLAYEMDSWDLYIALNEGQAITIVDGRSEAAFADEHIPGALNLPHKEICFNSTQMLDKSKLYVCYCDGIGCNASTKTALNLLTLGFDVRELIGGLDWWKRDGYATDGKKAQLGTKINCGC”, the protein production is reported as “failed”.
